{
  "source": "paper PMC10653821",
  "target": "H. pylori-bullfrog hybrid ferritin nanoparticle (bullfrog (Rana catesbeiana) | Helicobacter pylori)",
  "assay": "SEC",
  "data": [
    {"substance": "H. pylori-bullfrog hybrid ferritin nanoparticle", "values": [
      {"measurement": "stoichiometry N", "result": 24}
    ]}
  ]
}
